Reference: patent publication US20120040375A1

Experiments:
Biotin-Tn(DT*R)-100 = assay: SPR, Biacore T100, Biotin-Tn(DT*R)-100 on sensor chip SA
[1] = target: biotin-labeled T-47D culture supernatant (MUC1) (human) (UniProt P15941); assay: SPR, Biacore, biotin-labeled T-47D culture supernatant on sensor chip SA
Sequence of biotin-labeled T-47D culture supernatant (MUC1) (human) (P15941 24-1097 limits assumed): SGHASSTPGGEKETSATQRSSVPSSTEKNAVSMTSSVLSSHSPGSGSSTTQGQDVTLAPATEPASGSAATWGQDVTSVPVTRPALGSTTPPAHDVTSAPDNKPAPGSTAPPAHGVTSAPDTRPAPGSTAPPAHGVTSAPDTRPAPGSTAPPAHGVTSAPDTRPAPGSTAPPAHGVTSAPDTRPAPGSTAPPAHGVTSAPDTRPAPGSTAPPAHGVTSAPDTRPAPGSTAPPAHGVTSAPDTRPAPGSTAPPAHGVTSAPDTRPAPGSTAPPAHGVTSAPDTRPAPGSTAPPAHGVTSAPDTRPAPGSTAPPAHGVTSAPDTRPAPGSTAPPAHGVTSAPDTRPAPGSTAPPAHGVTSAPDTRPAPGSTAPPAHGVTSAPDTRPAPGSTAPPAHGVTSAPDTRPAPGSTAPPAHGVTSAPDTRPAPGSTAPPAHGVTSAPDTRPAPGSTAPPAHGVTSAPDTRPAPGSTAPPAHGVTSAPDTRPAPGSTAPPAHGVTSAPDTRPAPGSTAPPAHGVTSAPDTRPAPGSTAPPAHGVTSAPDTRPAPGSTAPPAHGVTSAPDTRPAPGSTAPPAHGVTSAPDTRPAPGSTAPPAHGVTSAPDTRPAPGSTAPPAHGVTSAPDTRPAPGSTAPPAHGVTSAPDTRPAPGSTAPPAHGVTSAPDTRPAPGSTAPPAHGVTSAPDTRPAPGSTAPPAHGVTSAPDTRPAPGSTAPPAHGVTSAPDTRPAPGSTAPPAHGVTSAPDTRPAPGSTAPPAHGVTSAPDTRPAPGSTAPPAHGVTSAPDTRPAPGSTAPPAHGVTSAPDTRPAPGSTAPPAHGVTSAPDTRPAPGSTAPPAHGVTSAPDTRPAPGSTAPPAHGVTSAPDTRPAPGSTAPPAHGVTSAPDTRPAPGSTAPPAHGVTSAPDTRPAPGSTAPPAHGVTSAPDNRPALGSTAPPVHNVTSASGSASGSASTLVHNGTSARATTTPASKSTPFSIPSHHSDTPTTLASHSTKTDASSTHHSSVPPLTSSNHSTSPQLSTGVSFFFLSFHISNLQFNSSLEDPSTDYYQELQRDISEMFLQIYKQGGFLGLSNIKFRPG

T100 sequence (peptide, as listed by the source limits assumed): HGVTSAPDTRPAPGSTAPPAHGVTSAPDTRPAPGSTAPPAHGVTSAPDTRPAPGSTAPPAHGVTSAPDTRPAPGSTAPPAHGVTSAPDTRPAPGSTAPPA

VU-2G7 (antibody)
Kd (Biotin-Tn(DT*R)-100): 180 nM | koff (Biotin-Tn(DT*R)-100): 0.064 s⁻¹ | kon (Biotin-Tn(DT*R)-100): 360000 M⁻¹ s⁻¹ | Kd [1]: 180 nM | koff [1]: 0.099 s⁻¹ | kon [1]: 550000 M⁻¹ s⁻¹

C595 (antibody)
Kd (Biotin-Tn(DT*R)-100): 720 nM | koff (Biotin-Tn(DT*R)-100): 0.012 s⁻¹ | kon (Biotin-Tn(DT*R)-100): 16000 M⁻¹ s⁻¹ | Kd [1]: 580 nM | koff [1]: 0.026 s⁻¹ | kon [1]: 44000 M⁻¹ s⁻¹

VU-3C6 (antibody)
Kd (Biotin-Tn(DT*R)-100): 840 nM | koff (Biotin-Tn(DT*R)-100): 0.051 s⁻¹ | kon (Biotin-Tn(DT*R)-100): 61000 M⁻¹ s⁻¹ | Kd [1]: 150 nM | koff [1]: 0.015 s⁻¹ | kon [1]: 110000 M⁻¹ s⁻¹
